According to patent US20220041715A1:

Columns and labels:
[1] = target: spike of SARS-CoV-2 variant B.1.1.7 (UK) on pseudotype virus (SARS-CoV-2) (UniProt P0DTC2); assay: cell-based or functional assay
[2] = target: spike of SARS-CoV-2 variant B.1.351 (South Africa) on pseudotype virus (SARS-CoV-2) (UniProt P0DTC2); assay: cell-based or functional assay
[3] = target: spike of SARS-CoV-2 variant P.1 (Japanese/Brazilian) on pseudotype virus (SARS-CoV-2) (UniProt P0DTC2); assay: cell-based or functional assay
[4] = target: spike of SARS-CoV-2 variant B.1.427/B.1.429 (California) on pseudotype virus (SARS-CoV-2) (UniProt P0DTC2); assay: cell-based or functional assay
[5] = target: CoV-2 RBD (V367F) (SARS-CoV-2) (UniProt P0DTC2); assay: ELISA
[6] = target: CoV-2 RBD (N354D, D364Y) (SARS-CoV-2) (UniProt P0DTC2); assay: ELISA
[7] = target: CoV-2 S (R683A, R685A) (SARS-CoV-2) (UniProt P0DTC2); assay: ELISA
[8] = target: CoV-2 RBD (N354D) (SARS-CoV-2) (UniProt P0DTC2); assay: ELISA
[9] = target: CoV-2 S (D614G) (SARS-CoV-2) (UniProt P0DTC2); assay: ELISA
[10] = target: CoV-2 RBD (W436R) (SARS-CoV-2) (UniProt P0DTC2); assay: ELISA

| Substance | pseudotype virus neutralization IC50 relative to Wuhan-Hu-1 [1] [fold] | pseudotype virus neutralization IC50 relative to Wuhan-Hu-1 [2] [fold] | pseudotype virus neutralization IC50 relative to Wuhan-Hu-1 [3] [fold] | pseudotype virus neutralization IC50 relative to Wuhan-Hu-1 [4] [fold] | EC50 [5] [µg/mL] | EC50 [6] [µg/mL] | EC50 [7] [µg/mL] | EC50 [8] [µg/mL] | EC50 [9] [µg/mL] | EC50 [10] [µg/mL] |
| --- | --- | --- | --- | --- | --- | --- | --- | --- | --- | --- |
| rCIG (recombinant coronavirus-2 immune globulin; recombinant anti-coronavirus 19 hyperimmune gammaglobulin) (antibody) | < 6 | < 6 | < 6 | < 6 | 0.07 | 0.08 | 0.09 | 0.07 | 0.05 | 0.07 |
| IVIG (Gamunex; Grifols) (antibody) |  |  |  |  | 1130 | 1320 | 2840 | 1240 | 1330 | 1240 |
